Test results as given in patent US12129308 (Merck KGaA, dated 2024).

Tests used:
[1] = molecular target: T1, activated human MMP13 (human, UniProt P45452 104-471); assay: cell-based or functional assay
[2] = molecular target: T2, activated MMP13 (species not stated) (Homo sapiens (Human), UniProt P45452 104-471, Biotinylated in the TIMP-2 competition ELISA (sites not given). Activated form: pro-peptide removed.); assay: TIMP-2 competition ELISA; Nanobody pre-incubated with 1.26 nM activated MMP13-biotin, binding to captured TIMP-2
T2 construct: campaign 4 ELISA; Probably human

[3] = molecular target: T1, activated human MMP13; assay: cell-based or functional assay; remark: listed apart in the source
[4] = molecular target: activated dog MMP13 (dog, UniProt P45452 104-471 (human entry)); assay: cell-based or functional assay
[5] = molecular target: cynomolgus MMP13 (cynomolgus, UniProt A0A2K5U988 104-471); assay: cell-based or functional assay
[6] = molecular target: bovine MMP13 (bovine, UniProt O77656 104-471); assay: cell-based or functional assay
[7] = molecular target: activated rat MMP13 (rat, UniProt P23097 99-466); assay: cell-based or functional assay

B1: C010100687 (bispecific antibody)
chain: EVQLVESGGGLVQPGGSLRLSCAASGFTLAYYSIGWFRQAPGKEREGVSCISSGIDGSTYYADSVKGRFTISRDNAKNTMYLQMNNLKPEDTGVYYCAADPSHYYSEYDCGYYGMDYWGKGTLVTVSSGGGGSGGGGSGGGGSGGGGSGGGGSGGGGSGGGGSEVQLVESGGGLVQPGGSLRLSCAASGSTFIINVVRWYRRAPGKQRELVATISSGGNANYVDSVRGRFTISRDNSKNTVYLQMNSLRPEDTAVYYCNVPTTHYGGVYYGPYWGQGTLVTVSS
[1]
  potency, human fluorogenic peptide assay: 1.57 nM

B2: C010100692 (bispecific antibody)
chain: EVQLVESGGGLVQPGGSLRLSCAASGFAFSAAYMSWVRQAPGKGLEWVSSISDDGSKTYYADSVKGRFTISRDNSKNTVYLQMNSLRPEDTAVYYCNTGYGATTTRPGRYWGQGTLVTVSSGGGGSGGGGSGGGGSGGGGSGGGGSGGGGSGGGGSEVQLVESGGGLVQPGGSLRLSCAASGRTFSSYTMGWFRQAPGKEREFVAAISWSGGRTYYADSVKGRFTISRDNSKNTVYLQMNSLRPEDTAVYYCAAYRRRRASSNRGLWDYWGQGTLVTVSS
[1]
  potency, human fluorogenic peptide assay: 0.828 nM

B3: C010100170 (VHH)
VHH: EVQLVESGGGLVQPGGSLRLSCAASGSIFSINAMGWYRQAPGKQRELVAAISSGGSTYYADSVKGRFTISRDNSKNTVYLQMNSLRPEDTAVYYCNAAVDASRGLPYELYYYWGQGTLVTVSS
[1]
  potency, human fluorogenic peptide assay: 0.608 nM

B4: C0101PMP525C04 (VHH)
VHH: DVQLVESGGGLVQPGGSLRLSCAGSGSIFSGNAMGWYRQAPGKQRELVAAITSGGVTNYADSVKGRFTISRDNSKNTVYLQMNSLRPEDTAVYYCAADIRYPTGLVGDYWGQGTLVTVSS
notes: Profile 2 Nanobody
[2]
  IC50: 36.2 nM
[3]
  IC50, human fluorogenic collagen assay: 90.5 nM
  IC50, human fluorogenic peptide assay: 58 nM
[4]
  IC50, dog fluorogenic peptide assay: 90.8 nM
[5]
  IC50, cyno fluorogenic peptide assay: 32.5 nM
[6]
  IC50, bovine fluorogenic peptide assay: 108 nM
[7]
  IC50, rat fluorogenic peptide assay: 157 nM

B5: C010100101 (VHH)
VHH: EVQLVESGGGLVQPGGSLRLSCAASGFTLAYYSIGWFRQAPGKEREGVSCISSGIDGSTYYADSVKGRFTISRDNAKNTMYLQMNNLKPEDTGVYYCAADPSHYYSEYDCGYYGMDYWGKGTLVTVSS
[1]
  potency, human fluorogenic peptide assay: 3.92 nM

B6: C0101PMP080A01 (VHH)
VHH: EVQLVESGGGLVQPGGSLRLSCAASGFTLAYYSIGWFRQAPGKEREGVSCISSGIDGSTYYADSVKGRFTISRDNAKNTMYLQMNNLKPEDTGVYYCAADPSHYYSEYDCGYYGMDYWGKGTLVTVSS
[3]
  IC50, human fluorogenic collagen assay: 10.8 nM
  IC50, human fluorogenic peptide assay: 5.2 nM
[4]
  IC50, dog fluorogenic peptide assay: 6 nM
[5]
  IC50, cyno fluorogenic peptide assay: 2.9 nM
[6]
  IC50, bovine fluorogenic peptide assay: 6.4 nM
[7]
  IC50, rat fluorogenic peptide assay: 4.2 nM

B7: C010100691 (bispecific antibody)
chain: EVQLVESGGGLVQPGGSLRLSCAASGSIFSINAMGWYRQAPGKQRELVAAISSGGSTYYADSVKGRFTISRDNSKNTVYLQMNSLRPEDTAVYYCNAAVDASRGLPYELYYYWGQGTLVTVSSGGGGSGGGGSGGGGSGGGGSGGGGSGGGGSGGGGSEVQLVESGGGLVQPGGSLRLSCAASGRTFSSYTMGWFRQAPGKEREFVAAISWSGGRTYYADSVKGRFTISRDNSKNTVYLQMNSLRPEDTAVYYCAAYRRRRASSNRGLWDYWGQGTLVTVSS
[1]
  potency, human fluorogenic peptide assay: 0.484 nM

B8: C010100696 (bispecific antibody)
chain: EVQLVESGGGLVQPGGSLRLSCAASGRTFSSYAMGWFRQAPGKEREFVAAISWSGGSTYYADSVKGRFTISRDNSKNTVYLQMNSLRPEDTAVYYCTAALAVYGPSRYRYGPVGEYQYWGQGTLVTVSSGGGGSGGGGSGGGGSGGGGSGGGGSGGGGSGGGGSEVQLVESGGGSVQPGGSLRLSCAASGSTFSRYSMNWYRQAPGKQREFVAGISVGRITNYAVSVRGRFTISRDNSEGTGYLQMNSLRPEDTAVYYCNAGGLQGYWGLGTLVTVSSGGGGSGGGGSGGGGSGGGGSGGGGSGGGGSGGGGSEVQLVESGGGLVQPGGSLRLSCAASGRTFSSYTMGWFRQAPGKEREFVAAISWSGGRTYYADSVKGRFTISRDNSKNTVYLQMNSLRPEDTAVYYCAAYRRRRASSNRGLWDYWGQGTLVTVSS
[1]
  potency, human fluorogenic peptide assay: 0.107 nM

B9: C010100688 (bispecific antibody)
chain: EVQLVESGGGLVQPGGSLRLSCAASGSIFSINAMGWYRQAPGKQRELVAAISSGGSTYYADSVKGRFTISRDNSKNTVYLQMNSLRPEDTAVYYCNAAVDASRGLPYELYYYWGQGTLVTVSSGGGGSGGGGSGGGGSGGGGSGGGGSGGGGSGGGGSEVQLVESGGGLVQPGGSLRLSCAASGSTFIINVVRWYRRAPGKQRELVATISSGGNANYVDSVRGRFTISRDNSKNTVYLQMNSLRPEDTAVYYCNVPTTHYGGVYYGPYWGQGTLVTVSS
[1]
  potency, human fluorogenic peptide assay: 0.927 nM

B10: C010100080 (bispecific antibody)
chain: EVQLVESGGGLVQPGGSLRLSCAASGRTFSSYAMGWFRQAPGKEREFVAAISWSGGSTYYADSVKGRFTISRDNSKNTVYLQMNSLRPEDTAVYYCTAALAVYGPNRYRYGPVGEYNYWGQGTLVTVSSGGGGSGGGGSGGGGSGGGGSGGGGSGGGGSGGGGSEVQLVESGGGSVQAGGSLRLSCAASGSTFSRYSMNWYRQAPGKQREFVAGISVGRITNYAVSVRGRFTISRDNAEGTGYLQMNSLKPEDTAVYYCNAGGLQGYWGLGTLVTVSSGAADYKDHDGDYKDHDIDYKDDDDKGAAHHHHHH
[1]
  potency, human fluorogenic peptide assay: 0.488 nM

B11: C010100689 (bispecific antibody)
chain: EVQLVESGGGLVQPGGSLRLSCAASGFAFSAAYMSWVRQAPGKGLEWVSSISDDGSKTYYADSVKGRFTISRDNSKNTVYLQMNSLRPEDTAVYYCNTGYGATTTRPGRYWGQGTLVTVSSGGGGSGGGGSGGGGSGGGGSGGGGSGGGGSGGGGSEVQLVESGGGLVQPGGSLRLSCAASGSTFIINVVRWYRRAPGKQRELVATISSGGNANYVDSVRGRFTISRDNSKNTVYLQMNSLRPEDTAVYYCNVPTTHYGGVYYGPYWGQGTLVTVSS
[1]
  potency, human fluorogenic peptide assay: 1.91 nM

B12: C0101PMP520C04 (VHH)
VHH: DVQLVESGGGLVQPGGSLRLSCAASGRTFSSYAMGWFRQAPGKEREFVAAISWSGGSTYYSDSVKGRFTISRDNSKNTVYLQMNSLRPEDTAVYYCTAARGGVAGTDGPLGDYNYWGQGTLVTVSS
notes: Profile 2 Nanobody
[2]
  IC50: 8 nM
[3]
  IC50, human fluorogenic collagen assay: 31.5 nM
  IC50, human fluorogenic peptide assay: 13.7 nM
[4]
  IC50, dog fluorogenic peptide assay: 10.5 nM
[5]
  IC50, cyno fluorogenic peptide assay: 32.5 nM
[6]
  IC50, bovine fluorogenic peptide assay: 27.9 nM
[7]
  IC50, rat fluorogenic peptide assay: 5.6 nM

B13: C0101PMP513C04 (VHH)
VHH: DVQLVESGGGLVQPGGSLRLSCAASGRTFSRYVMGWFRQAPGKEREFVAAINWSSGSTYYADSVKGRFTISRDNSKNTVYLQMNSLRPEDTAVYYCAADRRVYYDTYPNLRGYDYWGQGTLVTVSS
[3]
  IC50, human fluorogenic collagen assay: 18.1 nM
  IC50, human fluorogenic peptide assay: 7.7 nM
[4]
  IC50, dog fluorogenic peptide assay: 35.2 nM
[5]
  IC50, cyno fluorogenic peptide assay: 8 nM
[6]
  IC50, bovine fluorogenic peptide assay: 48.7 nM
[7]
  IC50, rat fluorogenic peptide assay: 16.2 nM

B14: C0101PMP059F06 (VHH)
VHH: EVQLVESEGGTVEPGESLRLACAAPGPGIRTNFMAWYRQAPEKEREMVASISRDGSTHYADSVKGRFTISSDNATSTFYLQMNSLQVEDTAVYYCATDPHILHNDRAGAFLVEDYDHWGQGTQVTVSS
notes: Profile 2 Nanobody
[2]
  IC50: 51.8 nM
[3]
  IC50, human fluorogenic collagen assay: 140 nM
  IC50, human fluorogenic peptide assay: 56.3 nM
[4]
  IC50, dog fluorogenic peptide assay: 82.6 nM
[5]
  IC50, cyno fluorogenic peptide assay: 48.5 nM
[6]
  IC50, bovine fluorogenic peptide assay: 108 nM
[7]
  IC50, rat fluorogenic peptide assay: 38.9 nM

B15: C010100700 (bispecific antibody)
chain: EVQLVESGGGLVQPGGSLRLSCAASGRTFSSYAMGWFRQAPGKEREFVAAISWSGGSTYYADSVKGRFTISRDNSKNTVYLQMNSLRPEDTAVYYCTAALAVYGPSRYRYGPVGEYQYWGQGTLVTVSSGGGGSGGGGSGGGGSGGGGSGGGGSGGGGSGGGGSEVQLVESGGGSVQPGGSLRLSCAASGSTFSRYSMNWYRQAPGKQREFVAGISVGRITNYAVSVRGRFTISRDNSEGTGYLQMNSLRPEDTAVYYCNAGGLQGYWGLGTLVTVSSGGGGSGGGGSGGGGSGGGGSGGGGSGGGGSGGGGSEVQLVESGGGLVQPGGSLRLSCAASGSTFIINVVRWYRRAPGKQRELVATISSGGNANYVDSVRGRFTISRDNSKNTVYLQMNSLRPEDTAVYYCNVPTTHYGGVYYGPYWGQGTLVTVSS
[1]
  potency, human fluorogenic peptide assay: 0.0318 nM

B16: C010100280 (VHH)
VHH: EVQLVESGGGLVQPGGSLRLSCAASGFAFSAAYMSWVRQAPGKGLEWVSSISDDGSKTYYADSVKGRFTISRDNSKNTVYLQMNSLRPEDTAVYYCNTGYGATTTRPGRYWGQGTLVTVSS
[1]
  potency, human fluorogenic peptide assay: 1.01 nM

B17: C010100726 (bispecific antibody)
chain: EVQLVESGGGLVQPGGSLRLSCAASGRTFSSYAMGWFRQAPGKEREFVAAISWSGGSTYYADSVKGRFTISRDNSKNTVYLQMNSLRPEDTAVYYCTAALAVYGPSRYRYGPVGEYQYWGQGTLVTVSSGGGGSGGGGSGGGGSGGGGSGGGGSGGGGSGGGGSEVQLVESGGGLVQPGGSLRLSCAASGSTFSRYSMNWYRQAPGKQREFVAGISVGRITNYAVSVKGRFTISRDNSKNTVYLQMNSLRPEDTAVYYCNAGGLQGYWGQGTLVTVSS
[1]
  potency, human fluorogenic peptide assay: 0.0671 nM

B18: C010100727 (bispecific antibody)
chain: EVQLVESGGGLVQPGGSLRLSCAASGRTFSSYAMGWFRQAPGKEREFVAAISWSGGSTYYADSVKGRFTISRDNSKNTVYLQMNSLRPEDTAVYYCTAALAVYGPSRYRYGPVGEYQYWGQGTLVTVSSGGGGSGGGGSGGGGSGGGGSGGGGSGGGGSGGGGSEVQLVESGGGLVQPGGSLRLSCAASGSTFSRYSMNWYRQAPGKQREFVAGISVGRITNYAVSVKGRFTISRDNSKNTGYLQMNSLRPEDTAVYYCNAGGLQGYWGQGTLVTVSS
[1]
  potency, human fluorogenic peptide assay: 0.134 nM
